Results: patent US20240050583A1, “PROTEIN-DRUG CONJUGATE AND SITE-SPECIFIC CONJUGATING METHOD” (HARBOUR BIOMED (SHANGHAI) CO., LTD, priority 2020, published 2024)

Tests used:
[1] = molecular target: T1, CHOK1-hCD47 cells highly expressing human CD47 (Homo sapiens, UniProt Q08722); assay: FACS binding to cells highly expressing CD47; conditions: flow cytometry FACS
T1 construct: host or cells: CHOK1-hCD47 (CHO-K1)
Procedure: The binding ability of the antigen-binding protein to CHOK1-hCD47 cells (GenScript, M00581) highly expressing human CD47 was determined by flow cytometry FACS. Specifically, the cells were digested and resuspended in a DMEM complete medium, and the cell density was adjusted to 1×10^6 cells/mL. The cells were seeded in a 96-well V-bottom plate (Corning, #3894) at 100 µL/well, followed by the addition of test binding proteins diluted in a 3-fold gradient at a concentration that was 2 times the final concentration, each at 100 μL/well. The cells were incubated at 4° C. for 1 h away from light. Thereafter, the cells in each well were rinsed twice with 100 μL of pre-cooled PBS, and centrifuged at 500 g at 4° C. for 5 min, and then the supernatant was discarded. Thereafter, a fluorescent secondary antibody (Alexa Fluor 488-conjugated AffiniPure Goat Anti-Human IgG, Fcγ Fragment Specific, Jackson ImmunoResearch Inc., #109-545-098, diluted in a 1:500 ratio) was added at 100 μL/well, and the plate was incubated at 4° C. for 30 min away from light. The cells in each well were then rinsed twice with 100 μL of pre-cooled PBS and centrifuged at 500 g at 4° C. for 5 min, and then the supernatant was discarded. […] Fluorescence signal values were read using a BD FACS CANTOII flow cytometer, and the data were processed and analyzed using FlowJo v10 (FlowJo, LLC) software.

[2] = Molecular weight and coupling product components (DAR) by LC-MS; conditions: coupling product without HIC purification, protein 4.1 mg/mL
From the text: In this example, liquid chromatography-mass spectrometry (LC-MS) was used to analyze the protein sample for molecular weight. Those skilled in the art can use different models of liquid chromatography (LC) and mass spectrometer (MS) to establish similar analytical methods according to the technical instructions and through experimental exploration. Only representative methods are listed in this example.
In certain specific embodiments, determination of the molecular weight of a protein sample required desaccharification on the sample to remove modifications such as saccharide chains, for example, the sample was processed with glycosidase PNGase F (NEB, #P0705L) at 37° C. for at least 4 h. For example, in all examples of the present invention, when the molecular weight of protein samples was determined, unless otherwise emphasized, the protein samples to be tested were subjected to desaccharification by the glycosidase PNGase F.
In certain specific embodiments, determination of the reduced molecular weight of a protein sample required reduction on the sample, for example, the sample was processed with […] dithiothreitol (DTT) at 37° C. for 10 min. For example, in all examples of the present invention, the samples after reduction were called reduced samples, and the samples without reduction were called non-reduced samples.
Buffer A was 0.1% formic acid FA dissolved in water, and buffer B was 0.1% formic acid FA dissolved in acetonitrile. Injection: about 1 μg; flow rate: 0.3 mL/min; and operation temperature: 80° C. When reduced samples were tested, buffer A and buffer B were mixed within 12 min to form a linear gradient: using 10-60% B for the first 8 min and 80% B for the last 4 min. When non-reduced samples were tested, buffer A and buffer B were mixed within 9 min to form a linear gradient: using 15-60% B for the first 6 min and 80% B for the last 3 min.
Buffer A was 0.1% formic acid FA dissolved in water, and buffer B was 0.1% formic acid FA dissolved in acetonitrile. Injection: about 10 μL; flow rate: 0.2-0.5 mL/min; and operation temperature: 80° C. […]

[3] = system: NCI-H929 cells; assay: Cytotoxic killing experiment (Example 7.5), NCI-H929; format: cell-based, human; conditions: 72 h, CellTiter-Glo; PR001046-ADC at 0.1 μg/mL and above; PR001046 0.01-1 μg/mL; mc-vc-PAB-MMAE 0.1-10 nM
From the text: The data were processed and analyzed by plotting using a GraphPad Prism 8 software. In this example, multiple groups of different PR001046-ADC samples were used, including samples containing different percentages of DAR=2 (D2) components before or after purification.

[4] = system: HEK293T-hBCMA cells; assay: Cytotoxic killing experiment (Example 9.5), HEK293T-hBCMA; conditions: 72 h, CellTiter-Glo; proteins up to 10 nM, mc-vc-PAB-MMAE up to 20 nM
Procedure: (§1) The HEK293T-hBCMA, NCI-H929, HEK293T and SNU-16 cells were seeded in 96-well plates (Perkin Elmer, #6005225) respectively, with the following seeded cell number: 2500 cells/50 μL/well (HEK293T-hBCMA), 5000 cells/50 μL/well (NCI-H929), 2500 cells/50 μL/well (HEK293T), and 5000 cells/50 μL/well (SNU-16). Then, the plates were incubated overnight at 37° C. with 5% CO2. Then, a test sample serially pre-diluted was added at 50 μL/well. PR004433, PR004433-ADC and PR004432-ADC were diluted at a 3-fold concentration gradient from the highest final concentration of 10 nM, and mc-vc-PAB-MMAE was diluted at a 3-fold concentration gradient from the highest final concentration of 20 nM. In addition, a well without the test sample was set as a control well. Thereafter, the plates were incubated at 37° C. with 5% CO2 for 72 h, a CellTiter-Glo cell viability detection reagent (Promega, #G7573) was added, then the plates were incubated at room temperature for at least 10 min to obtain stable luminescence signals, and the luminescence values were detected using a microplate reader. The cell viability was calculated based on the luminescence values by the following formula: […]
(§2) The data were processed and analyzed by plotting using GraphPad Prism 8 software, and binding curves of the antibodies to target cells, EC50 values and other parameters were obtained through four-parameter nonlinear fitting.

[5] = system: HCC1954 cells; assay: Cytotoxic killing experiment (Example 8.5), HCC1954; conditions: 72 h, CellTiter-Glo; proteins up to 30 nM, mc-vc-PAB-MMAE up to 60 nM
Procedure: This example was to study the cell killing activity of the anti-5T4 antibody coupling product PR004432-ADC against a human breast cancer cell strain HCC1954 (ATCC, CRL-2338) highly expressing human 5T4.
The HCC1954 cells were seeded in a 96-well plate (Perkin Elmer, #6005225) at 4000 cells/50 μL/well and incubated overnight at 37° C. with 5% CO2. Then, a test sample serially pre-diluted was added at 50 μL/well. PR004432, PR004432-ADC and PR004433-ADC were diluted at a 3-fold concentration gradient from the highest final concentration of 30 nM, and mc-vc-PAB-MMAE was diluted at a 3-fold concentration gradient from the highest final concentration of 60 nM. In addition, a well without the test sample was set as a control well. Thereafter, the plates were incubated at 37° C. with 5% CO2 for 72 h, a CellTiter-Glo cell viability detection reagent (Promega, #G7573) was added, then the plates were incubated at room temperature for at least 10 min to obtain stable luminescence signals, and the luminescence values were detected using a microplate reader. The cell viability was calculated based on the luminescence values by the following formula:
Cell viability (%)=(A/B)×100% […]
as §2

[6] = system: NCI-H929 cells; assay: Cytotoxic killing experiment (Example 9.5), NCI-H929; conditions: 72 h, CellTiter-Glo; proteins up to 10 nM, mc-vc-PAB-MMAE up to 20 nM
Procedure: as §1
The data were processed and analyzed by plotting using GraphPad Prism 8 software, and binding curves of the antibodies to target cells, EC50 values and other parameters were obtained through four-parameter nonlinear fitting. […]

T1 sequence (Q08722 19-323): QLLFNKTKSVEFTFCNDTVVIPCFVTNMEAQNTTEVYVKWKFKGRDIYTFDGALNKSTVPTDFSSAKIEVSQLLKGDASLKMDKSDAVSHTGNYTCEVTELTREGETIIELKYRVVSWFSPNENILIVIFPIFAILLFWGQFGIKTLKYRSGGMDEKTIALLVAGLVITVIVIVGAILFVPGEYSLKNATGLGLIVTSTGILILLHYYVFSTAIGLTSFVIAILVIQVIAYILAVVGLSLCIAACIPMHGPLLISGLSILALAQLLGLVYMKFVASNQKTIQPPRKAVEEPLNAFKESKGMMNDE

| binding activity to CD47 (CHOK1-hCD47 cells) [1] | Substance | Average DAR ([2]; Experiment 1, TCEP 1.5 equivalents) | Average DAR ([2]; Experiment 2, TCEP 2.0 equivalents) | Average DAR ([2]; Experiment 3, TCEP 3.0 equivalents) | cell killing of BCMA-positive cells NCI-H929 [3] | cytotoxic killing against HEK293T-hBCMA cells [4] | cytotoxic killing against HCC1954 cells [5] | cytotoxic killing against NCI-H929 cells [6] |
| --- | --- | --- | --- | --- | --- | --- | --- | --- |
| strong specific binding activity | PR006345: SIRPa-Fc fusion protein: ALX148 SIRPa variant fused with human IgG1 hinge and Fc, SEQ ID NO: 149 | 1.89 | 2.23 | 2.91 | – | – | – | – |
| – | mc-vc-PAB-MMAE [reference compound] | – | – | – | cannot effectively kill | cannot produce effective killing | only has a killing effect at the highest concentration (60 nM) | cannot produce effective killing |
